According to publication PMC11849304 (Virology Journal, 2025):

B1: 8D2 (antibody, V domains shown)
VH: EVQLVESGGGLVQPGGSLRLSCAASGFTFSSYWMSWVRQAPGKGLEWVANINQDGSEKYYVDSVKGRFTISRDNAKNSLYLQVNSLRAEDTAVYYCARDWDYDILTGSWFGAFDIWGQGTTVTVSS
VL: DIQMTQSPSSLSASVGDRVTITCRASQGIRNDLGWYQQKPGKAPKRLIYAASSLQSGVPSRFSGSGSGTEFTLTISSLQPEDFATYYCLQHNSYPLTFGGGTKVEIK
B2: COV2-2490 (antibody, V domains shown)
VH: EVQLVESGGGLVQPGGSLRLSCAASGFTFSSYWMNWVRQAPGKGLEWVANINQDGGEKYYVDSVRGRFTISRDNAKNSLYLQMNSLRAEDTAVYYCARDPYDLYGDYGGTFDYWGQGTLVTVSS
VL: not shown

Target: soluble WT SARS-CoV-2 spike trimer protein (SARS-CoV-2, wild-type (NC_045512), UniProt P0DTC2)
Test: ELISA

Binder | binding result
B1 | binds
B2 | binds
